Experimental data reported in publication PMC11342335 (2024).

Biological target: human sortilin (R&D Systems, 3154-ST) (human, UniProt Q99523 78-755)
Assay: SPR

human sortilin (R&D Systems, 3154-ST), sequence (Q99523 78-755): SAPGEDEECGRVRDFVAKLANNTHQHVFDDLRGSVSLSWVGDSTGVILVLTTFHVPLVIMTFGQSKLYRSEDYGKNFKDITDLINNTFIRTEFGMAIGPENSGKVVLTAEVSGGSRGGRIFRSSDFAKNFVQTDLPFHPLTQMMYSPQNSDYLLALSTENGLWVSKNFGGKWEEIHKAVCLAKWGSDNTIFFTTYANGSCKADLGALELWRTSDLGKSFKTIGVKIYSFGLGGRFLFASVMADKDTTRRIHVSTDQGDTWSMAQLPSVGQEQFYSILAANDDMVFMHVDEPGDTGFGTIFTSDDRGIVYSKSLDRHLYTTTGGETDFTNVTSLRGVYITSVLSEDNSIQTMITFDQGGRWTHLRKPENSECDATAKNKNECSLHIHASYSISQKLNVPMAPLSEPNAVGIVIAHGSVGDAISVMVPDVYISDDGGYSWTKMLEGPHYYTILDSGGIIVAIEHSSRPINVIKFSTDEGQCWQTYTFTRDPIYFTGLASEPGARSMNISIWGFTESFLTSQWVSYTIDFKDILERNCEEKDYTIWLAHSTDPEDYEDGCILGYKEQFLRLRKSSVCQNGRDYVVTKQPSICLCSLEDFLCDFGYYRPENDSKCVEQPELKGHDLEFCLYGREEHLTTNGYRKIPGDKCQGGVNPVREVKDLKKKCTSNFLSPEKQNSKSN

Binder: LRREAPRWDAPLRDPGLRQLL [ABD-PGRNC21* (His6-ABD035-PGRNC21*)]
- Kd: 26 nM
